Results on three molecules are retold here after patent US20240376208A1 (AFFIMED, published 2024).

The target of assay [1] is CD38 on primary human NK cells (human, UniProt P28907 1-300). The experiment in a line: cell-based or functional assay.
Assay [2] addresses T1, biotinylated dimeric CD16A antigen (human, UniProt P08637 17-208, limits assumed, biotinylated (site not stated)).
T1 construct: Soluble antigen; also called soluble CD16A antigen
The assay is described as follows: ELISA, biotinylated dimeric CD16A titrated on coated construct. Here is the method:
(§1) For the capturing approach, 96-well ELISA plates (Immuno Maxisorp, Nunc) were coated overnight at 4° C. with His-tagged human EGFR or BCMA extracellular domain at concentrations of 3.0 or 0.4 μg/mL, respectively. After blocking with 3% (w/v) skimmed milk powder dissolved in phosphate buffered saline (PBS), antigen coated plates were used for capturing of different multivalent bispecific engagers at concentrations of 3-5 μg/mL in PBS containing 0.3% (w/v) skimmed milk powder. After washing three times with 300 μL per well of PBS containing 0.1% (v/v) Tween 20, plates were incubated with serial dilutions of biotinylated dimeric or monomeric CD16A antigen in PBS containing 0.3% (w/v) skimmed milk powder for 1.5 h at room temperature. After washing, plates were incubated with the detection conjugate Streptavidin HRP, 1:10,000 diluted in PBS containing 0.3% (w/v) skimmed milk powder for 1 h followed by washing and incubation with tetramethylbenzidine substrate (Seramun) for 1-2 min. Reaction was stopped by addition of 0.5 M H₂SO₄ (100 μL/well). Absorbance was measured at 450 nm using a multiwell plate reader, plotted and EC₅₀ values were determined by fitting a nonlinear regression model to sigmoidal dose-response curves (four parameters logistic fit) using GraphPad Prism software.
(§2) Concentration dependent binding of antibody constructs to coated recombinant CD16A antigen, or of soluble monomeric or dimeric CD16 antigen variants to coated or target antigen captured antibody constructs was analyzed in ELISA. Half maximal binding concentrations (EC₅₀) were determined by fitting a nonlinear regression model to sigmoidal dose-response curves (four parameters logistic fit) using GraphPad Prism software.
Background: ELISA stands for enzyme-linked immunosorbent assay.

The target of assay [3] is T2, biotinylated monomeric CD16A antigen (human, UniProt P08637 17-208, limits assumed, biotinylated (site not stated)).
T2 construct: Soluble antigen; also called soluble CD16A antigen
T2 sequence (P08637 17-208 limits assumed): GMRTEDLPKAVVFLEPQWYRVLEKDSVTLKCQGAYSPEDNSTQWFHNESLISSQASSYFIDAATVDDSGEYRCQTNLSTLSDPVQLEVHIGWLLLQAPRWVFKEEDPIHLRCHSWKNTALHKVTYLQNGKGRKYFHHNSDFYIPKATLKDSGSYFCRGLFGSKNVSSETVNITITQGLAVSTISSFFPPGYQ
The experiment in a line: ELISA, biotinylated monomeric CD16A titrated on coated construct. On the procedure: as §1, §2

Assay [4] deals with T3, His-tagged human EGFR extracellular domain (human, UniProt P00533 25-645).
T3 construct: extracellular domain; Coated at 3.0 ug/mL to capture the EGFR-targeting constructs; not shown: His tag
The experiment in a line: ELISA, construct captured on coated His-tagged human EGFR extracellular domain.

Assay [5] deals with T4, recombinant CD16A 158F fused to monomeric human Fc (human, UniProt P08637 17-208).
T4 construct: also called recombinant CD16 antigen variant; not shown: monomeric human Fc
T4 sequence (P08637 17-208): as the sequence (P08637 17-208 limits assumed) above
The assay is described as follows: ELISA, construct titrated on coated CD16A 158F fused to monomeric human Fc. Here is the method: To assess binding of EGFR/CD16 or BCMA/CD16 antibodies to coated antigen in ELISA, 96-well ELISA plates (Immuno Maxisorp, Nunc) were coated overnight at 4° C. with recombinant CD16 antigen variants fused to monomeric human Fc at a concentration of 1.5 μg/mL in 100 mM carbonate-bicarbonate buffer. After blocking with 3% (w/v) skimmed milk powder dissolved in phosphate buffered saline (PBS) serial dilutions of bispecific antibody constructs were incubated on the antigen coated plates for 1.5 h at room temperature. […] After washing, plates were incubated with tetramethylbenzidine substrate (Seramun) for 1-2 min. Reaction was stopped by addition of 0.5 M H₂SO₄ (100 μL/well). Absorbance was measured at 450 nm using a multiwell plate reader, plotted and EC₅₀ values were determined by fitting a nonlinear regression model to sigmoidal dose-response curves (four parameters logistic fit) using GraphPad Prism software.
as §2

Assay [6] concerns the target recombinant CD16A 158V fused to monomeric human Fc (human, UniProt P08637 17-208). The assay is described as follows: ELISA, construct titrated on coated CD16A 158V fused to monomeric human Fc.
Assay [7] addresses T1, biotinylated dimeric CD16A antigen. The experiment in a line: ELISA, biotinylated dimeric CD16A titrated on construct captured by coated His-tagged human EGFR extracellular domain. Here is the method:
as §1, §2

The target of assay [8] is T2, biotinylated monomeric CD16A antigen. The experiment in a line: ELISA, biotinylated monomeric CD16A titrated on construct captured by coated His-tagged human EGFR extracellular domain. Here is the method: as §1, §2
Assay [9] has as its target T5, BCMA on MM.1S target cells (UniProt Q02223 1-184, limits assumed).
T5 sequence (looked up): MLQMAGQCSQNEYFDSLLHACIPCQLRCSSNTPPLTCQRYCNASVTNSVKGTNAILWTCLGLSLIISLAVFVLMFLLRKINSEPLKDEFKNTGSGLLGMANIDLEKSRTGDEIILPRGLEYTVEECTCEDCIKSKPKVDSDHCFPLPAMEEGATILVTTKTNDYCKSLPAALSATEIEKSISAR
The experiment in a line: cell-based or functional assay.

In assay [10] the target is T1, biotinylated dimeric CD16A antigen. The assay is described as follows: ELISA, biotinylated dimeric CD16A titrated on construct captured by coated His-tagged human BCMA extracellular domain. Here is the method:
as §1, §2

The target of assay [11] is T2, biotinylated monomeric CD16A antigen. The experiment in a line: ELISA, biotinylated monomeric CD16A titrated on construct captured by coated His-tagged human BCMA extracellular domain. On the procedure: as §1, §2

T1 sequence (P08637 17-208 limits assumed): as the sequence (P08637 17-208 limits assumed) above
Sequence of recombinant CD16A 158V fused to monomeric human Fc (P08637 17-208 F176V): as the sequence (P08637 17-208 limits assumed) above, with F160V counted along it

B1: IgAb_51 (antibody, V domains shown)
VH: EVQLLESGGGLVQPGGSLRLSCAVSGFTFNSFAMSWVRQAPGKGLEWVSAISGSGGGTYYADSVKGRFTISRDNSKNTLYLQMNSLRAEDTAVYFCAKDKILWFGEPVFDYWGQGTLVTVSS
VL: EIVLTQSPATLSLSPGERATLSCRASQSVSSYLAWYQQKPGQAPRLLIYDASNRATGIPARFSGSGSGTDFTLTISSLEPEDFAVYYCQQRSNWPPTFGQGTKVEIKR
Take B1: in assay [1], the “EC50 [pM], 4 h calcein-release NK cell fratricide assay, E:T 1:1” value was 66.5 pM and the “Emax [%], 4 h calcein-release NK cell fratricide assay, E:T 1:1” value is 68.6%.

B2: scFv-IgAb_47 (bispecific antibody)
heavy: QVQLVQSGAEVKKPGESLKVSCKASGYTFTSYYMHWVRQAPGQGLEWMGAIEPMYGSTSYAQKFQGRVTMTRDTSTSTVYMELSSLRSEDTAVYYCARGSAYYYDFADYWGQGTLVTVSSASTKGPSVFPLAPSSKSTSGGTAALGCLVKDYFPEPVTVSWNSGALTSGVHTFPAVLQSSGLYSLSSVVTVPSSSLGTQTYICNVNHKPSNTKVDKKVEPKSCDKTHTCPPCPAPEFEGGPSVFLFPPKPKDTLMISRTPEVTCVVVAVSHEDPEVKFNWYVDGVEVHNAKTKPREEQYNSTYRVVSVLTVLHQDWLNGKEYKCKVSNKALPAPIEKTISKAKGQPREPQVYTLPPSREEMTKNQVSLTCLVKGFYPSDIAVEWESNGQPENNYKTTPPVLDSDGSFFLYSKLTVDKSRWQQGNVFSCSVMHEALHNHYTQKSLSLSPGGGGGSGGGGSQVQLQESGPGLVKPSETLSLTCTVSGGSVSSGSYYWSWIRQPPGKGLEWIGYIYYSGSTNYNPSLKSRVTISVDTSKNQFSLKLSSVTAADTAVYYCARNPISIPAFDIWGQGTMVTVSSGGSGGSGGSGGSGGSGGSQPVLTQPPSVSVAPGKTARITCGGNNIGSKSVHWYQQKPGQAPVLVIYYDSDRPSGIPERFSGSNSGNTATLTISRVEAGDEADYYCQVWDTSSDHVLFGGGTKLTVL
light: SYVLTQPSSVSVAPGQTATISCGGHNIGSKNVHWYQQRPGQSPVLVIYQDNKRPSGIPERFSGSNSGNTATLTISGTQAMDEADYYCQVWDNYSVLFGGGTKLTVLGQPKAAPSVTLFPPSSEELQANKATLVCLISDFYPGAVTVAWKADSSPVKAGVETTTPSKQSNNKYAASSYLSLTPEQWKSHRSYSCQVTHEGSTVEKTVAPTECS
What is called EC50 is the concentration needed to bring the measured effect to its halfway point. Consider B2, for which the EC50 in [2] came out at 0.89 nM; in [3], 2 nM; in [5], 0.18 nM; in assay [6] it was 0.16 nM; in assay [7], 0.76 nM; in assay [8], 1.62 nM. The binding result in [4] is recorded as “binds”.

B3: aBi-scDb-Fc_02 (bispecific antibody)
chain 1: DKTHTCPPCPAPEFEGGPSVFLFPPKPKDTLMISRTPEVTCVVVAVSHEDPEVKFNWYVDGVEVHNAKTKPREEQYNSTYRVVSVLTVLHQDWLNGKEYKCKVSNKALPAPIEKTISKAKGQPREPQVYTLPPSREEMTKNQVSLTCLVKGFYPSDIAVEWESNGQPENNYKTTPPVLDSDGSFFLTSKLTVDKSRWQQGNVFSCSVMHEALHNHYTQKSLSLSPGGGGGSGGGGSSYVLTQPSSVSVAPGQTATISCGGHNIGSKNVHWYQQRPGQSPVLVIYQDNKRPSGIPERFSGSNSGNTATLTISGTQAMDEADYYCQVWDNYSVLFGGGTKLTVLGGSGGSQVQLVQSGAEVKKPGESLKVSCKASGYTFTSYYMHWVRQAPGQGLEWMGAIEPMYGSTSYAQKFQGRVTMTRDTSTSTVYMELSSLRSEDTAVYYCARGSAYYYDFADYWGQGTLVTVSSGGSGGSGGSGGSGGSGGSSYVLTQPSSVSVAPGQTATISCGGHNIGSKNVHWYQQRPGQSPVLVIYQDNKRPSGIPERFSGSNSGNTATLTISGTQAMDEADYYCQVWDNYSVLFGGGTKLTVLGGSGGSQVQLVQSGAEVKKPGESLKVSCKASGYTFTSYYMHWVRQAPGQGLEWMGAIEPMYGSTSYAQKFQGRVTMTRDTSTSTVYMELSSLRSEDTAVYYCARGSAYYYDFADYWGQGTLVTVSSAAAGSHHHHHH
chain 2: EVQLLESGGGLVQPGGSLRLSCAASGFTFSNYDMAWVRQAPGKGLEWVSSISTRGDITSYRDSVKGRFTISRDNSKNTLYLQMNSLRAEDTAVYYCARQDYYTDYMGFAYWGQGTLVTVSSGGGGSGGGGSGGGGSAIQMTQSPSSLSASVGDRVTITCRASEDIYNGLAWYQQKPGKAPKLLIYGASSLQDGVPSRFSGSGSGTEFTLTISSLQPEDEATYYCAGPHKYPLTFGGGTKVEIKDKTHTCPPCPAPEFEGGPSVFLFPPKPKDTLMISRTPEVTCVVVAVSHEDPEVKFNWYVDGVEVHNAKTKPREEQYNSTYRVVSVLTVLHQDWLNGKEYKCKVSNKALPAPIEKTISKAKGQPREPQVYTLPPSREEMTKNQVSLYCLVKGFYPSDIAVEWESNGQPENNYKTTPPVLDSDGSFFLYSKLTVDKSRWQQGNVFSCSVMHEALHNHYTQKSLSLSPGGGGGSGGGGSSYVLTQPSSVSVAPGQTATISCGGHNIGSKNVHWYQQRPGQSPVLVIYQDNKRPSGIPERFSGSNSGNTATLTISGTQAMDEADYYCQVWDNYSVLFGGGTKLTVLGGSGGSQVQLVQSGAEVKKPGESLKVSCKASGYTFTSYYMHWVRQAPGQGLEWMGAIEPMYGSTSYAQKFQGRVTMTRDTSTSTVYMELSSLRSEDTAVYYCARGSAYYYDFADYWGQGTLVTVSSGGSGGSGGSGGSGGSGGSSYVLTQPSSVSVAPGQTATISCGGHNIGSKNVHWYQQRPGQSPVLVIYQDNKRPSGIPERFSGSNSGNTATLTISGTQAMDEADYYCQVWDNYSVLFGGGTKLTVLGGSGGSQVQLVQSGAEVKKPGESLKVSCKASGYTFTSYYMHWVRQAPGQGLEWMGAIEPMYGSTSYAQKFQGRVTMTRDTSTSTVYMELSSLRSEDTAVYYCARGSAYYYDFADYWGQGTLVTVSSAAAGSHHHHHH
For the molecule B3, the “EC50 [pM], 4 h calcein-release cytotoxicity on BCMA+ MM.1S target cells, NK cells E:T 5:1” value in [9] was 2.3 pM. Also, the “Emax [%], 4 h calcein-release cytotoxicity on BCMA+ MM.1S target cells, NK cells E:T 5:1” value in assay [9] was 62.8%. Further, the EC50 in [2] is 1 nM; in assay [3], 3.84 nM; in assay [5], 0.45 nM; in assay [6], 0.34 nM; in assay [10], 1.25 nM; in assay [11] it was 2.36 nM.
